# Experimental data published in patent publication US20180312539A1, “METHODS FOR PREPARING HIGH THROUGHPUT PEPTIDOMIMETICS, ORALLY BIOAVAILABLE DRUGS AND COMPOSITIONS CONTAINING SAME” (University of Southern California, priority 2011, published 2018).
# “And” between values parts separate entries of the source, which are not always exact repeats. Identical values can stand only once. *1 amine or outer side, *2 acyl side, *3 side chain or, on linkers, in order; H or OH if unused. Where a SMILES comes first, the peptide text is derived from it. Bridges are numbered along the chain shown (N, C = ends). Where no end group is shown, it is not given here. [ ]: non-standard residue; d: D form. The star is where a group is joined. 5FAM = O=C1OC2(c3ccc(O)cc3Oc3cc(O)ccc32)c2ccc(C(=O)*)cc21; Biotin = O=C1N[C@H]2[C@H](CS[C@H]2CCCCC(=O)*)N1; NMeW = CN[C@@H](Cc1c[nH]c2ccccc12)C(=O)O; Glutaryl = O=C(CCCC(=O)[*:2])[*:1]; NMeNva = CCC[C@H](NC)C(=O)O; NMeA = CN[C@@H](C)C(=O)O
# Tests used:
# [1] = cited from earlier work
# [2] = parameters: species or system C57BL6 mice; conditions: mouse, in vivo
# Experimental: The following peptides were synthesized for oral administration: […](FAM) (SEQ ID NO: 14), […](FAM)DK(Palmitoleic acid) (SEQ ID NO: 15), and […](FAM) (SEQ ID NO: 16), wherein FAM is a lysine derivative containing fluorescein. All peptides were cyclized from the side chain to lysine to the N-terminus as previously described. Anesthetized C57BL6 mice had peptide administered at a dose of 10 mg/kg by oral gavage. After administration, mice were removed from isoflurane. At various time points, blood samples were taken by orbital bleeding as previously described. Peaks were normalized to a 15 minute time point from mice that had peptide administered by IV injection.
# The following peptides were synthesized for oral administration: […](FAM) (SEQ ID NO: 14), […](FAM) (SEQ ID NO: 16), […](FAM)DK(biotin) (SEQ ID NO: 38), and […](FAM)DK(Palmitoleic acid) (SEQ ID NO: 15). All peptides were cyclized from the side chain to lysine to the N-terminus as previously described in Millward, S. W. et al. (2007) ACS Chem. Biol. 2:625. Anesthetized C57BL6 mice had peptide administered at a dose of 10 mgs/Kg by oral gavage. After administration, mice were removed from isoflurane. At various time points, blood samples were taken by orbital bleeding as previously described. Peaks were normalized to a 20 minute time point from mice that had peptide administered by IV injection. Area under the curve was analyzed by Graphpad 5.0.
# In addition to accessing intracellular targets in cell culture, deriving a simple modification that would facilitate oral bioavailability of peptidic ligands would be greatly beneficial for therapeutic development. Intestinal absorption of both fatty acids and biotin is nearly 100% efficient. Zempleni, J. and Mock, D. M. (1999) The American Journal of Clinical Nutrition 69:504. […] Applicants synthesized a protease resistant peptide with the sequence […]-mod (designated SUPR peptide) (SEQ ID NO: 50), where A is N-methyl alanine, the peptide is cyclized from lysine to the N-terminus, and K(mod) is lysine with a modified sidechain including either biotin or palmitoleic acid. Palmitoleic acid is a monounsaturated fatty acid chosen for its ability to bind human serum albumin, and its low melting point allowing for more favorable solubility of conjugated peptides as compared to […] fatty acid conjugates. This peptide was administered to mice at a dose of 10 mg/kg by oral gavage. At various time points, blood was taken from the mice by orbital bleeding. After processing, fluorescence was quantified and compared to the maximum signal obtained by IV injection of peptide at the same dose.
# Human serum digests = type: in vitro ADME; conditions: reconstituted human serum, 37° C
# Experimental: (§1) Delipidated/lyophilized human serum was purchased from Thermo Scientific and reconstituted as per manufacturer's instructions. 250 nmoles of peptide in 50 μLs of sodium phosphate buffer (pH=8.0) with 10% DMSO was added to 1 mL of reconstituted serum and incubated at 37° C. 100 μL aliquots were taken at various time points and quenched in 300 μLs of acetonitrile. Samples were spun down and decanted to remove precipitate followed by dilution in water to 1.5 mLs. Samples were then analyzed by HPLC as described in the protease resistance experiment.
# as §1, with “μL” for “μLs”, “mLs.” for “mLs. Samples were then analyzed by HPLC as described in the protease resistance experiment.”
# The human serum and human microsome stability of the Gαi1 binding SUPR peptide ([…] (SEQ ID NO: 7)) were compared to the peptides ability to bind to Her-2. Beginning with the human serum analysis, peptides were digested with 95% human serum at 37° C. Analysis was performed by HPLC. […] Therefore, intact peptide is only completely unmodified peptide. Digestions of SUPR, HMP, and PMP are show have lives very similar to SUPR. Digestion of PMP2 is in progress. Without being bound by theory, Applicants theorize that the fitting for HMP may have produced an artificially low half-life.
# [3] = PAMPA (parallel artificial membrane permeability assay); type: in vitro ADME; conditions: for Log Pe of peptide (biotinylated): biotin-labeled peptide (number + B), non-reducible biotin; for Log Pe of peptide (biotinylated) / Log Pe of peptide: PBS pH 7.4, 24 hrs; for Log Pe of peptide: unmodified peptide, room temperature; for Log Pe: peptide conjugated to biotin containing a reducible disulfide (RB), acceptor well reducing (10 mM DTT)
# Experimental: PAMPA assays were set up following manufacturer's instructions. Briefly, 1% phosphatidyl choline (Sigma) was dissolved in dodecane (Sigma) at 65° C. for 3 min. The membrane was applied to each well as per manufacturer's instructions. […] 100 μL of sample was put into each donor well. The acceptor wells contained 300 μL of a 5% DMSO in PBS solution. Passive diffusion was allowed to occur at room temperature for 24 hrs. […] Absorbance at 215 nm was monitored. The area under the peptide peak was integrated.
# The acceptor well contained 10 mM DTT as a reducing agent. Data was collected after 6, 12 and 24 hrs. Absorbance at 280 nm was analyzed. The following formula was used to calculate Log Pe: […]
# Applicants employed a parallel artificial membrane permeability assay (PAMPA) that will allow for the rapid screening of peptide passive diffusion across a phospholipid bilayer. (Schmidt, et al. (2003) J. Millipore Corporation Application Note AN1729EN00.). In this assay, two chambers are separated by a phospholipid bilayer supported on an inert membrane. Applicants chose to initially focus Applicants examination on peptide ligands developed to bind with high affinity to the heterotrimeric G-proteins Gαi1*GDP and Gα12*GDP. Ja, W. W., et al. (2004) Biochemistry 43:9265; Millward, S. W., et al. (2007) ACS Chem. Biol. 2:625; Fiacco, S. et al. (2008) ChemBioChem 9:2200. These ligands included variations in sequence, size, overall charge, and polarity as well as comparing linear and cyclic peptides, end and biotinylation. […] According to classical methods of increasing permeability. Pinski, C. A., et al. (2001) Advanced Drug Delivery Reviews 46:3. Applicants postulated that the removal of hydrogen bond donors by N-methylation should further increase the permeability of this peptide.
# proteinase K = proteinase K (Parengyodontium album, UniProt P06873); conditions: immobilized proteinase K, 4° C; for Cyc t1/2: cyclic peptide; for Lin t1/2: linear peptide
# Experimental: Immobilized chymotrypsin and proteinase K purchased from Sigma. 250 nmoles of peptide in DMSO were added to 50 mM sodium phosphate buffer (pH=8.0) with a final DMSO concentration of 2%. […] The graph was generated by fitting the data to a one phase exponential decay equation (GraphPad Prism 5.0).
# Protease resistance enhancement was then tested. The simplest solution for enhancing protease resistance would be the removal of amino acids recognized by protease K and chymotrypsin.
# Next the role of each of the N-methyl alanines was analyzed independently. […] For example sequence modifications, including N-methylation would be accomplished one amino acid at a time, walking the peptide from low protease stability to high stability. Whether this is a viable approach for making a peptide like SUPR was investigated. Towards that end, Applicants walked back from SUPR peptide to something closer to cycGIBP, and to determine if there was a gradual decrease in protease resistance. Towards that end, three peptides were synthesized. Two of them contained only one NMA (alanine was substituted for NMA), and the other had no NMA. It was hypothesized that if one could walk back to cycGIBP, then one would expect the loss of a single N-methyl to have some effect on reducing protease resistance, but to still be better than cycGIBP.
# chymotrypsin = target: T1, chymotrypsin (Bos taurus, UniProt P00766); test: Protease resistance experiment, chymotrypsin digest; type: in vitro ADME
# T1 construct: purchased Sigma
# Experimental: Immobilized chymotrypsin and proteinase K purchased from Sigma.
# Protease resistance enhancement was then tested.
# Towards that end, three peptides were synthesized. […] The effects were dramatic and surprising.
# proteinase K, sequence (P06873 106-384): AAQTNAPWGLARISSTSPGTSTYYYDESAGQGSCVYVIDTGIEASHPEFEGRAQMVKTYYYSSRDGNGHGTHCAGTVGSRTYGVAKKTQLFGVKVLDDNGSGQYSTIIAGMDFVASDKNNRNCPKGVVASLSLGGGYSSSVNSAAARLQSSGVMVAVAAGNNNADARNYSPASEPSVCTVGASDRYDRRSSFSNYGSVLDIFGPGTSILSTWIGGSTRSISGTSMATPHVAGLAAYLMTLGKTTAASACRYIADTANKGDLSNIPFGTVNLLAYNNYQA
compound,measurement,setting,value
O=C(O)CCCC[C@@H]1SC[C@@H]2NC(=O)N[C@@H]21 [biotin],intestinal absorption efficiency,[1]; Zempleni and Mock (1999),~100%
same,oral bioavailability,[1]; as known in the field,~100%
CSCC[C@@H]1NC(=O)CCCC(=O)NCCCC[C@@H](C(=O)N[C@@H](CCCCNC(=O)c2ccc3c(c2)C(=O)OC32c3ccc(O)cc3Oc3cc(O)ccc32)C(=O)N[C@H](CCCCNC(=O)CCCC[C@@H]2SC[C@@H]3NC(=O)N[C@@H]32)C(=O)O)NC(=O)[C@H](CO)NC(=O)[C@H](Cc2c[nH]c3ccccc23)NC(=O)[C@H](CCC(N)=O)NC(=O)[C@H](C)N(C)C(=O)[C@H](Cc2ccc(O)cc2)NC(=O)[C@H](CCC(=O)O)NC(=O)[C@H](Cc2ccc(O)cc2)NC(=O)[C@H](C)N(C)C(=O)[C@H](Cc2ccc(O)cc2)NC(=O)[C@H](Cc2ccccc2)NC1=O [biotinylated peptide] (MFY[NMeA]YEY[NMeA]QWSKK(5FAM)[dK](Biotin)-OH; linker N-12 via Glutaryl; C-terminus assumed),bioavailability,[2]; 10 mg/kg,9.4%
same,time of maximal uptake,[2]; po,3 h
same,oral uptake efficiency,"[2]; po, 10 mg/kg",6.4%
"CC[C@H](C)[C@H](NC(=O)[C@@H](N)CCSC)C(=O)N[C@H](C(=O)N[C@@H](Cc1c[nH]c2ccccc12)C(=O)N[C@@H](Cc1ccc(O)cc1)C(=O)N[C@@H](CCC(=O)O)C(=O)N[C@@H](Cc1ccccc1)C(=O)N[C@H](C(=O)N[C@@H](C)C(=O)NCC(=O)N[C@H](C(=O)N[C@@H](CCCCN)C(N)=O)[C@@H](C)O)C(C)C)[C@@H](C)O [linGIBP, reference compound] (H-MITWYEFVAGTK-NH2)",half-life,Human serum digests,~504 s
CSCC[C@H](N)C(=O)N[C@@H](Cc1ccccc1)C(=O)N[C@@H](Cc1ccc(O)cc1)C(=O)N(C)[C@@H](C)C(=O)N[C@@H](Cc1ccc(O)cc1)C(=O)N[C@@H](CCC(=O)O)C(=O)N[C@@H](Cc1ccc(O)cc1)C(=O)N(C)[C@@H](C)C(=O)N[C@@H](CCC(N)=O)C(=O)N[C@@H](Cc1c[nH]c2ccccc12)C(=O)N[C@@H](CO)C(=O)N[C@@H](CCCCN)C(N)=O [linSUPR],half-life,Human serum digests,972 s
(N-MeNva)ITWYEFVAGTK ([NMeNva]ITWYEFVAGTK(Biotin)-NH2; N-terminus assumed; SMILES CCC[C@H](NC)C(=O)N[C@H](C(=O)N[C@H](C(=O)N[C@@H](Cc1c[nH]c2ccccc12)C(=O)N[C@@H](Cc1ccc(O)cc1)C(=O)N[C@@H](CCC(=O)O)C(=O)N[C@@H](Cc1ccccc1)C(=O)N[C@H](C(=O)N[C@@H](C)C(=O)NCC(=O)N[C@H](C(=O)N[C@@H](CCCCNC(=O)CCCC[C@@H]1SC[C@@H]2NC(=O)N[C@@H]21)C(N)=O)[C@@H](C)O)C(C)C)[C@@H](C)O)[C@@H](C)CC) [Peptide 9],Log Pe of peptide (biotinylated),[3],−7.4 ± −0.1
same,Log Pe of peptide,[3],−7.0 ± −0.1
"Cyclo-MITWYEFVAGTK (not fully specified (C-terminus, bridges); printed as Cyclo-MITWYEFVAGTK; also: cyclized, ring closure not given here) [Peptide 8]",Log Pe of peptide (biotinylated),[3],−6.5 and −6.5 ± −0.0
same,Log Pe,[3],−5.9
same,Log Pe of peptide,[3],−8.2 ± −0.2
MFYAYEYAQWSK,Cyc t1/2,proteinase K,<12 s
same,Lin t1/2,proteinase K,<12 s
same,Cyc t1/2,chymotrypsin,<12 s
same,Lin t1/2,chymotrypsin,<12 s
MITWYEFVAGTK [Peptide 7],Log Pe of peptide (biotinylated),[3],−6.6 ± −0.1
same,Log Pe of peptide,[3],−7.8 ± −0.1
"MITWYEFVAGTK [Lin column linGIBP, Cyc column cycGIBP, reference compound]",Cyc t1/2,proteinase K,60 s
same,Lin t1/2,proteinase K,<12 s
same,Cyc t1/2,chymotrypsin,126 s
same,Lin t1/2,chymotrypsin,19.8 s
MRLVWIVRSRHFGPRLRMAK (MRLVWIVRSRHFGPRLRMAK(Biotin)-NH2; N-terminus assumed; SMILES CC[C@H](C)[C@H](NC(=O)[C@H](Cc1c[nH]c2ccccc12)NC(=O)[C@@H](NC(=O)[C@H](CC(C)C)NC(=O)[C@H](CCCNC(=N)N)NC(=O)[C@@H](N)CCSC)C(C)C)C(=O)N[C@H](C(=O)N[C@@H](CCCNC(=N)N)C(=O)N[C@@H](CO)C(=O)N[C@@H](CCCNC(=N)N)C(=O)N[C@@H](Cc1c[nH]cn1)C(=O)N[C@@H](Cc1ccccc1)C(=O)NCC(=O)N1CCC[C@H]1C(=O)N[C@@H](CCCNC(=N)N)C(=O)N[C@@H](CC(C)C)C(=O)N[C@@H](CCCNC(=N)N)C(=O)N[C@@H](CCSC)C(=O)N[C@@H](C)C(=O)N[C@@H](CCCCNC(=O)CCCC[C@@H]1SC[C@@H]2NC(=O)N[C@@H]21)C(N)=O)C(C)C) [Peptide 11],Log Pe of peptide (biotinylated),[3],−6.0 ± −0.1
MSQTKRLDDQLYWWEYL (Biotin-MSQTKRLDDQLYWWEYL) [Peptide 10],Log Pe of peptide (biotinylated),[3],−6.2 and −6.2 ± −0.0
same,Log Pe,[3],−4.8
same,fold increase in peptide delivery,[3]; reducible vs nonlabile biotin conjugate,16 fold
same,Log Pe of peptide,[3],−8.4 ± −0.1
NNNNNDKLY(N-MeW)WEFL (Biotin-NNNNNDKLY[NMeW]WEFL) [Peptide 6],Log Pe of peptide (biotinylated),[3],−6.6 ± −0.1
same,Log Pe of peptide,[3],>−9.0
